From publication doi:10.1101/2022.08.30.505862
Read-outs that look alike come from different tables or passages of the source.

Columns and labels:
RBM39 RRM2 [1] = biological target: T1, RBM39 RRM2 (UniProt Q14498 247-332); assay: ITC
T1 sequence: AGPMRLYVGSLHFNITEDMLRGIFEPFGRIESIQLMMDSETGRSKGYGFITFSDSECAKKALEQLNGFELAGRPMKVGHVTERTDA

RBM39 RRM2 F259A = biological target: T2, RBM39 RRM2 F259A (UniProt Q14498 247-332, F259A); assay: ITC
T2 sequence: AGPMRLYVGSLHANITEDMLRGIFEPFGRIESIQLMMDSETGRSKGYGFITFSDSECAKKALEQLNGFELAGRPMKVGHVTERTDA

RBM39 RRM2 [2] = biological target: T1, RBM39 RRM2; assay: NMR CSP
RBM39 RRM2 [3] = biological target: T1, RBM39 RRM2; assay: NMR CSP; remark: listed apart in the source
RBM39 RRM12 = biological target: T3, RBM39 RRM12 (UniProt Q14498 143-332); assay: NMR CSP
T3 sequence: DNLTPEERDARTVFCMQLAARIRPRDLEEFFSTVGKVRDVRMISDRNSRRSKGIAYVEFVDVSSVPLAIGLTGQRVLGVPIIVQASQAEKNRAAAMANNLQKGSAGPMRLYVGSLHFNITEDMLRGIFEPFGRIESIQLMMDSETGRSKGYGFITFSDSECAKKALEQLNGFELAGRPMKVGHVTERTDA

RBM39 RRM1 = biological target: T4, RBM39 RRM1 (UniProt Q14498 142-237); assay: NMR solution structure
T4 sequence: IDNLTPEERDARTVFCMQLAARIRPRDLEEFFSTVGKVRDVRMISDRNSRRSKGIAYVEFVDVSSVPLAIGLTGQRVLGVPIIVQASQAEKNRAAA

GB1-RBM39-RRM12 = biological target: T5, GB1-RBM39-RRM12 (UniProt Q14498 143-332); assay: NMR CSP
T5 sequence: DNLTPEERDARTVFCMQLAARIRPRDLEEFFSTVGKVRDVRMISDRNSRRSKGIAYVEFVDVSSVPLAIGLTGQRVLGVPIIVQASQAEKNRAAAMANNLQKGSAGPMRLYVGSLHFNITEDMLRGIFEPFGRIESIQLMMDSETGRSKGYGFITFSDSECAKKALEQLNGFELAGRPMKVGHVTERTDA

B1: AGCUUUG ssRNA (ssRNA)
RNA: AGCUUUG
Kd (RBM39 RRM2 [1]): 9 ± 2 µM
binding signal (RBM39 RRM2 F259A): 4 fold lower affinity than WT

B2: mutBS1 (CCUCCCA) (ssRNA)
RNA: CCUCCCA
binding result (RBM39 RRM2 [2]): no binding

B3: BS1 (CUCUUUG) (ssRNA)
RNA: CUCUUUG
binding result (RBM39 RRM2 [3]): binds

B4: U1 snRNA SL3 (structured_RNA)
RNA: GGGAUUUCCCCAAAUGUGGGAAACUCCC
binding result (RBM39 RRM12): binds
binding result (RBM39 RRM1): binds

B5: RBMY stem-loop aptamer (structured_RNA)
RNA: GGACUGUCCACAAGACAGUCG
binding result (GB1-RBM39-RRM12): binds

B6: U1 snRNA SL4 (structured_RNA)
RNA: GGGGACUGCGUUCGCGCUUUCCCC
binding result (GB1-RBM39-RRM12): binds

B7: BS2 (ACCUUUG) (ssRNA)
RNA: ACCUUUG
binding result (RBM39 RRM2 [3]): binds
